From paper PMC8326762, “A Small Molecule Inhibitor of Pex3–Pex19 Interaction Disrupts Glycosome Biogenesis and Causes Lethality in Trypanosoma brucei” (Frontiers in Cell and Developmental Biology, 2021)

How the values were obtained:
[1] = target: T1, TbPex3 (Trypanosoma brucei, UniProt Q383Q3); test: pull-down and MST with purified MBP-TbPex3 and NT-647-labeled His-TbPex19; inhibition of protein-protein interaction; type: binding
T1 construct: gene Tb11.01.2020; MBP fusion to TbPex3 (with 6 × His-TbPex19), recombinant from E. coli; with TbPex19

[2] = target: His-HsPex19 (human) (UniProt P40855); test: MST; Monolith NT.115; 100 nM each of NT-647-labeled His-Pex19 and MBP-Pex3 with DMNQ titrated from 3 nM to 100 μM; apparent
[3] = target: His-HsPex19 (human) (UniProt P40855); test: MST; Monolith NT.115; MBP-Pex3 (0–2.5 μM) titrated into 100 nM NT-647-labeled His-Pex19; 50 mM Tris–HCl, pH 7.4, 150 mM NaCl, 10 mM MgCl2, 0.05% Tween-20
[4] = target: His-TbPex19 (T. brucei); test: MST; Monolith NT.115; 100 nM each of NT-647-labeled His-Pex19 and MBP-Pex3 with DMNQ titrated from 3 nM to 100 μM; apparent
[5] = target: His-TbPex19 (T. brucei); test: MST; Monolith NT.115; MBP-Pex3 (0–2.5 μM) titrated into 100 nM NT-647-labeled His-Pex19; 50 mM Tris–HCl, pH 7.4, 150 mM NaCl, 10 mM MgCl2, 0.05% Tween-20

Sequence of His-HsPex19 (human) (P40855 whole entry): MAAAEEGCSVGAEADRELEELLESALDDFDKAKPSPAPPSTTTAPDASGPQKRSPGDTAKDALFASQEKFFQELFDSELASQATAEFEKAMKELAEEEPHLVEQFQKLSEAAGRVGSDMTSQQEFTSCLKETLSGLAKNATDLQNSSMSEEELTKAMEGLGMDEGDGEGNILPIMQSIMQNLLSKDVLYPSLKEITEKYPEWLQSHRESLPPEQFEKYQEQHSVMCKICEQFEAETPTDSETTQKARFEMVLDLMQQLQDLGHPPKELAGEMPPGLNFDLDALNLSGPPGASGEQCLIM

For COC1=C(OC)C(=O)c2ccccc2C1=O [2,3-dimethoxy-1,4-naphthoquinone], the “pull-down and MST with purified MBP-TbPex3 and NT-647-labeled His-TbPex19; inhib” value [1] was 39.6 ± 0.86 µM.

“MBP-HsPex3 (from UniProt P56589 1-373) (natural protein)” gave a KD with DMNQ titrated in [2] of 14.5 nM and a Kd [3] of 4.37 nM.

MBP-TbPex3 (natural protein) gave an apparent KD with DMNQ titrated in [4] of 39600 nM and a Kd [5] of 3.8 nM.
